The test deals with GMPCPP-stabilised, rhodamine labelled microtubules (porcine brain tubulin) (porcine (purified from porcine brain)) (UniProt P02550). As to the kind of experiment: single-molecule TIRF microscopy.
Chain of UniProt P02550 (P02550 whole entry, the tested form may be a part): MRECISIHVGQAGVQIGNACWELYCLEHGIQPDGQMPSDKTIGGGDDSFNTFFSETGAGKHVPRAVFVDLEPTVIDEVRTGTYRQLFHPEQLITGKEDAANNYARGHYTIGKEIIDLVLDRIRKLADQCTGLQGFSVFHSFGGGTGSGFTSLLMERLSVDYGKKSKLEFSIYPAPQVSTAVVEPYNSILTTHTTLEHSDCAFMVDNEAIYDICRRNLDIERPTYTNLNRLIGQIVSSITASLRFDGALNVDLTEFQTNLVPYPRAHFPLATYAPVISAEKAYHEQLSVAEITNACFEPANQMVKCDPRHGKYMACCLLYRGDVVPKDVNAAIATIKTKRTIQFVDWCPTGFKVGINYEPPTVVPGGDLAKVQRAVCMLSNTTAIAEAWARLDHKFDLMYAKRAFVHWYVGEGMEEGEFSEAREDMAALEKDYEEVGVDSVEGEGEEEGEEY
In turn, “Rat kinesin-1 rKin430-GFP-h6 G262K (domain or fragment)” returned a microtubule end residence time of 0.74 s.

For “Rat kinesin-1 rKin430-GFP-h6 N263E (domain or fragment)”, the microtubule end residence time came out at 0.98 s.

Turning to “Rat kinesin-1 rKin430-GFP-h6 S266A (domain or fragment)”, the microtubule end residence time worked out at 0.8 s.

With “Rat kinesin-1 rKin430-GFP-h6 S266R (domain or fragment)”, the microtubule end residence time worked out at 1.39 s.

In the case of “Rat kinesin-1 rKin430-GFP-h6 triple mutant (G262K, N263E, S266R) (domain or fragment)”, the microtubule end residence time was 0.97 s.

Substance “Rat kinesin-1 rKin430-GFP-h6, wild type (domain or fragment)” displayed a microtubule end residence time of 0.35 s.

Source of the values: publication doi:10.1101/405654.
